How the values were obtained:
[1] = target: HSP70 (Spodoptera frugiperda (endogenous in Sf9)); assay: native MS
[2] = target: T1, TOPOVIBLΔC25 (monomer) (Mus musculus, UniProt J3QMY9 1-554); assay: fluorescence anisotropy
T1 sequence: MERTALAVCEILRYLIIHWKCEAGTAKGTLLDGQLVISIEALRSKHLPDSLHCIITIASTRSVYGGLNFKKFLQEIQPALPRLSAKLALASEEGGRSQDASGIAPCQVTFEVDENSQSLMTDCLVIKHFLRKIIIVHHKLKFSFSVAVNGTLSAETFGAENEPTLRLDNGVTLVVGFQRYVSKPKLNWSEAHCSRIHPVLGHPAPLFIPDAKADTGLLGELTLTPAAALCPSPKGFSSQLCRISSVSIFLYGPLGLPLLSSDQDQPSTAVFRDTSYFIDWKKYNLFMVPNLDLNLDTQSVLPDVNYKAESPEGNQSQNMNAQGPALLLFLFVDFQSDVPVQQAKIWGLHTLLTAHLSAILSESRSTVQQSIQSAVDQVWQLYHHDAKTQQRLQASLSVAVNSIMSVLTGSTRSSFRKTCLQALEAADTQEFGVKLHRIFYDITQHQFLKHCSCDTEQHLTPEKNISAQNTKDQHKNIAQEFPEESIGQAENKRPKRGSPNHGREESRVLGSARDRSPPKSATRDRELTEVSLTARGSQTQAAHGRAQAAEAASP

[3] = target: T2, TOPOVIBLΔC25 K281E K282E (Mus musculus, UniProt J3QMY9 1-554, K281E;K282E); assay: fluorescence anisotropy
T2 sequence: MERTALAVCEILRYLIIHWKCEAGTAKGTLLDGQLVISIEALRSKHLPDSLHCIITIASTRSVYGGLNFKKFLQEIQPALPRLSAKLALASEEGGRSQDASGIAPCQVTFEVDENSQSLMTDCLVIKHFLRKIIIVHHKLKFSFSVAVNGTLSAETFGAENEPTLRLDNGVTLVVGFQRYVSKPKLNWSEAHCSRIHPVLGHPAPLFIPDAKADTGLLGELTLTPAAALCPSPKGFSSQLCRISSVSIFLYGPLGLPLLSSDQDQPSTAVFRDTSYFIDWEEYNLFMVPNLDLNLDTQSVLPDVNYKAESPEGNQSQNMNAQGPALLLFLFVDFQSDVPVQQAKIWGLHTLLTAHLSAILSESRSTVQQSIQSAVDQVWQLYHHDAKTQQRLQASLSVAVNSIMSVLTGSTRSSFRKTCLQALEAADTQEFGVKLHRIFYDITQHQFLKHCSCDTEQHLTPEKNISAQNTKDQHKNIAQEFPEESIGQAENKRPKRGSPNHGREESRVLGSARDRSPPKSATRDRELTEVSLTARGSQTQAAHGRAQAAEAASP

[4] = target: T1, TOPOVIBLΔC25 (monomer); assay: competition
[5] = target: T1, TOPOVIBLΔC25 (monomer); assay: fluorescence anisotropy; remark: listed apart in the source

Q: HSP70 (natural protein) was tested. Which stoichiometry N [1] did it give?
A: 2

B1: 2B70 dsDNA (dsDNA)
DNA 1: AGACAAGAGATGGCCCTTTCCAGAAGCTACCACCATCATGTCTTCTACCACTGTGCACTAATATAGTGTG
DNA 2: CACACTATATTAGTGCACAGTGGTAGAAGACATGATGGTGGTAGCTTCTGGAAAGGGCCATCTCTTGTCT
Q: Which Kd [2] does the source give for B1 here?
A: 1.5 µM

B2: 2B60 dsDNA (dsDNA)
DNA 1: AGAGATGGCCCTTTCCAGAAGCTACCACCATCATGTCTTCTACCACTGTGCACTAATATA
DNA 2: TATATTAGTGCACAGTGGTAGAAGACATGATGGTGGTAGCTTCTGGAAAGGGCCATCTCT
Q: How did the Kd [2] turn out when B2 was run?
A: 0.9 µM

B3: 2B20 dsDNA (dsDNA)
DNA 1: GCTACCACCATCATGTCTTC
DNA 2: GAAGACATGATGGTGGTAGC
Q: How did the Kd [2] turn out when B3 was run?
A: 1.61 µM

B4: 2B39 dsDNA (dsDNA)
DNA 1: CTTTCCAGAAGCTACCACCATCATGTCTTCTACCACTGT
DNA 2: ACAGTGGTAGAAGACATGATGGTGGTAGCTTCTGGAAAG
Q: Which results are given for B4?
A: binding signal [3]: 3 mutant/wild type Kd ratio; Kd [2]: 0.65 µM

Q: Does ACAGTGGTAGAAGACATGATGGTGGTAGCTTCTGGAAAG (ssDNA) [ss2B39 (unlabeled competitor)] bind [4]?
A: binds

Q: How did the Kd [2] turn out when CTTTCCAGAAGCTACCACCATCATGTCTTCTACCACTGT (ssDNA) [ss2B39 (labeled)] was run?
A: 0.31 µM

B5: U40 dsDNA (dsDNA)
DNA 1: CTATTGAAAAAGGAAGAGTATGAGTATTCAACATTTCCGC
DNA 2: GCGGAAATGTTGAATACTCATACTCTTCCTTTTTCAATAG
Q: Does B5 bind [5]?
A: binds

Source: paper doi:10.1101/2023.11.02.565342
